Assay [1] deals with CH12F3 cells. As to the kind of experiment: FISH of metaphase chromosomes for sister telomere loss (STL) in CH12F3 cells. It is filed as cell-based, mouse. As to the method: (§1) B cell lymphoma cells, CH12F3-2 cells, were cultured in RPMI medium supplemented with 10% FBS, 0.05% 2- mercaptoethanol and 5% NCTC 109 (Sigma). CH12F3-2 cells stably expressing Ugi were obtained by retroviral delivery using pMIG vector as described before ^39. Class switching induction to IgA in CH12F3-2 cells was performed as previously published ^39. CSR to IgA in CH12F3-2 cells was determined with an Accuri C6™ Flow Cytometer (BD Biosciences). Mouse B cells were purified from freshly isolated splenocytes using anti-CD43 magnetic beads as described ^70. CSR was induced using 5 ? g/ml LPS (Sigma) and 20 ng/ml IL-4 (Preprotech). Cells were harvested for ChIP or metaphase spreads and FISH at 24 h post stimulation.
For metaphase analysis cells were incubated with 50 ng/ml colcemide in cell culture media for 3 hours, harvested by trypsinization, incubated for 10 min at RT in 75 mM KCl, and fixed in freshly prepared methanol:glacial acetic acid (3:1 v/v). Cells were stored at 4° C. and when needed dropped onto wet slides and air-dried. For FISH analysis of the metaphases the cells were pre-treated with 0.05% w/v pepsin in 10 mM HCl during 10 minutes at 37° C. […] Finally, the samples were analyzed as described above. […]

A further assay concerns the target T1, UNG (Mus musculus, UniProt P97931).
T1 construct: endogenous in cells; host or cells: CH12F3 (CH12F3-2) mouse B lymphoma cells, with or without retrovirally expressed Ugi and shRNAs; sonicated whole-cell extract
As to the kind of experiment: UNG activity assay with CH12F3 cell extracts. It is filed as biochemical. The settings on record: CH12F3 Ugi cell extracts. As to the method:
UNG activity assay was performed as previously described ^69 with minor modifications. Briefly, exponentially growing cells were washed in 1X PBS buffer, resuspended in HED buffer (25 mM Hepes, 5 mM EDTA, 1 mM dithiothreitol and 10% glycerol at pH 7.8) with complete protease inhibitors (Roche) and lysed by sonication (five pulses of 30 seconds) in a Bioruptor™ (Diagenode). After centrifugation at 14,000 rcf for 20 min at 4° C., the supernatant was frozen in aliquots into liquid nitrogen and stored at […]. UNG assays were carried out in HED buffer by mixing 10 μg of cell extract with 1 pmol of fluorescein-labeled oligonucleotide substrate in a final volume of 10 μl for 3 hours at 37° C. The double-stranded oligonucleotide with a single dU/dG mismatch was made by annealing 5′-[…](SEQ ID NO: 45)-fluorescein (FITC) to the complementary oligonucleotide, 5′-[…]-3′(SEQ ID NO: 46). The reaction was terminated by the addition of 10 UI of formamide loading dye and the products were resolved on 15% TBE-urea polyacrylamide gels. The apyrimidinic endonuclease (APE) activity present in the extracts was sufficient to cleave all the abasic substrate generated by UNG during the reaction. The FITC signal of the reaction products was visualized using a Typhoon Phosphorlmager™ (GE Healthcare).

In assay [2] the test system is CH12F3 cells. As to the kind of experiment: Proliferation of CH12F3 cells after CSR stimulation (cell number, CFSE dilution). Type of assay: cell-based, mouse. The conditions noted are these: CH12F3 Ugi cells stimulated for CSR; prevented by AID knockdown. As to the method: as §1
In another assay the test system is CH12F3-2 cells. As to the kind of experiment: Cloning efficiency of single CH12F3-2 cells. It is filed as cell-based, mouse. The conditions noted are these: 14 days after single-cell dilution with cytokines to induce CSR to IgA, vs CH12F3-2 GFP. The text has this: B cells must expand clonally while expressing AID during the GC reaction. Based on the results described above the inventors asked whether UNG deficiency might limit the proliferation capacity of transformed B-cells expressing AID. To assess the effect of UNG deletion on the proliferation of B-cells expressing AID, the inventors immunized WT and UNG-null mice with a T-dependent antigen to stimulate germinal center (GC) B-cell expansion and AID expression in vivo. The inventors used an AID-GFPtg reporter mouse that allows identifying AID+ GC B-cells in response to immunization ^6,28. […] This reduction was explained by the ˜3-fold smaller average GC size in Ung^−/− versus Ung^+/+ AID-GFPtg mice, rather than any difference in the number of GC (FIGS. 10C-D). […] However, it must be noted that at variance with immunization, which stimulates a few B-cells that need to undergo clonal expansion to form the GC, stimulation in vitro with cytokines causes massive proliferation accompanied by a high level of spontaneous cell death, which likely obscures the additional increase due to UNG-deficiency (not shown). To address this limitation, the inventors evaluated the cloning efficiency of single B-cells. […]

The target in a further assay is E. coli UNG (Escherichia coli, UniProt P12295). The settings on record: cited from earlier work.
Sequence of E. coli UNG (P12295 whole entry): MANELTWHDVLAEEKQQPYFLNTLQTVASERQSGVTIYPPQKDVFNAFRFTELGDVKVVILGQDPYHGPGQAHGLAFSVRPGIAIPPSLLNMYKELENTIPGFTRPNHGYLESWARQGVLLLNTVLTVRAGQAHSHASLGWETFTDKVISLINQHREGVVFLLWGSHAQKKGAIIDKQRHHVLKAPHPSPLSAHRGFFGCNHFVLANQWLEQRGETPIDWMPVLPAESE

T1 sequence (P97931 whole entry): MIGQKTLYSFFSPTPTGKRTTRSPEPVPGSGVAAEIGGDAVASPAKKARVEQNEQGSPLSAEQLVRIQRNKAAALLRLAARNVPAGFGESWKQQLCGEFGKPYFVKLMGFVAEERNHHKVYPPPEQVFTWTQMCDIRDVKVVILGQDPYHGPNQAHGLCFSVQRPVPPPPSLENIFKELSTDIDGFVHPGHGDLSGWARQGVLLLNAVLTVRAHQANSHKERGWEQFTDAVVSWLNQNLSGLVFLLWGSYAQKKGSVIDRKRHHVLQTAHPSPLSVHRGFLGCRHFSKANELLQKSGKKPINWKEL

B1: Ugi: Uracil Glycosylase Inhibitor of Bacillus subtilis bacteriophage PBS1/PBS2, small protein (9.5 kDa), SEQ ID NO: 29; expressed in cells by retroviral delivery (protein)
chain: MTNLSDIIEKETGKQLVIQESILMLPEEVEEVIGNKPESDILVHTAYDESTDENVMLLTSDAPEYKPWALVIQDSNGENKIKML
modifications: bacillus subtilis
notes: expressed in cells by retroviral delivery
On to B1, for which the STL entry in the assay with CH12F3 cells [1] (CH12F3 Ugi cells expressing human AID, without inducing class switching, vs CH12F3 GFP) is listed as “significant increase in STL”. Also, in the assay with CH12F3 cells [1] (activated CH12F3 cells expressing Ugi vs CH12F3 cells expressing GFP alone), the “metaphase chromosomes with STL” value was “significant increase in metaphase chromosomes with STL”. Further, the UNG activity result with UNG was “lacked UNG activity”. Besides, the “growth (total cell number or CFSE dilution assay)” value in the assay on CH12F3 cells [2] was “reduced growth”. The cloning capacity result in the assay with CH12F3-2 cells is recorded as “significant decrease in the cloning capacity”. Moreover, the “inhibition of UNG” value with E. coli UNG is “inhibits E. coli UNG as well as UNG from other species”.

The record behind these values is patent US20180221438A1, “MODULATING URACIL-DNA GLYCOSYLASE AND USES THEREOF” (Adaerata Limited Partnership, priority 2015, published 2018).
